According to the supplement of paper PMC9170038:

Test system: MS2 coat protein
Experiment: apparent KD of MS2 coat protein; higher = weaker reporter binding
Settings: Eterna round: R101
Experimental: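 RNA-MaP: designed FMN/MS2 RNA switches (84 nt design region) are transcribed on-chip within common flanks and titrated with SNAP-549-labelled MS2 coat protein (about 1-3000 nM) in 100 mM Tris pH 7.5, 80 mM KCl, 4 mM MgCl2, without or with 200 uM FMN. Median apparent KD per design; activation ratio = KD,OFF / KD,ON.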

Sequence	apparent KD of MS2 coat protein (input ligand: FMN 200 uM)	apparent KD of MS2 coat protein (input ligand: none)
CCAGUUCUGGCAUCCUUAUUACAUGAGGAUCACCCAUGUUGUGAGGAUAUCCCAACCCACGGUCAGGAGAAGGCACAUAGAGGG [Eduscebira] (puzzle (switch architecture): Exclusion NG 3)	5.37 nM	5.89 nM
GGCAGCUUUCAGAAGGGAGUGCGAUAAUCGCACUCAGGAUAUGAGGAUCACCCAUAUCAUGCUGCCACUGAGGCAAAGCCUCAG [#SharedSequence - IEx NG 3-1] (puzzle (switch architecture): Inverted Exclusion NG 1)	13.3 nM	11 nM
GGAGAUACAUGAGGAUCACCCAUGUAGGAUAUAUAGUAUAUAUAUGGCGAAAGCCAUAUAUAUAUAUAGAAGGGCGUACACACC [#LOL-14] (puzzle (switch architecture): Small Loop Exclusion NG 3)	7.28 nM	8.22 nM
UGGUACUAGGGAGGAUAUGGGAAGAUACAUGAGGAUCACCCAUGUUUAAGAAUGCCGAGAGGCAACUAGAAGGCCCUAGUACCU (puzzle (switch architecture): Same State NG 2)	18.9 nM	437 nM
AAGUGAAAUCAGAAGGCGUGGACGAAACGUCCACGAGGAUAUGAGGAUCACCCAUGUCAGGUCAGCCUGCAAAGCAGGCUGACC [#SharedSequence - IExNG1: 6-1] (puzzle (switch architecture): Inverted Exclusion NG 1)	259 nM	66.2 nM
AAAUAACUUGAAGGAUAUGACCCUCGAGGUGACUAAAAGUCACCUCGAGGGUCAGAAGGUCGAGGAUCACCCGACCAAAUAAAU [#SharedSequence SLExNG1: 10] (puzzle (switch architecture): Small Loop Exclusion NG 1)	11.2 nM	10.9 nM
UUGGACGUCGUAGGAUAUGUAGGAUAUUCCUACAUGAGGAUCACCCAUGUUGAAAUGGAAGAAGGACAGAAGGACGAUGUCCAU (puzzle (switch architecture): Same State NG 2)	3.83 nM	19.4 nM
AAUAAUUCUUAAGGAUAUCAGUGGCAAAGCCACUGAGAAGGUGAGGAUCACCCACCUACGUGACGCUGGAAACAGCGUCACGAA [#SharedSequence ExNG1 - 30] (puzzle (switch architecture): Exclusion NG 1)	23.1 nM	16.2 nM
AAUAAAGAUCCUAGAGGAUCACCCUAGGAUAUGAGGCUGCACCUCGGAUAAUCCGAGGUGCAGCCUCAGAAGGAGGAAAUAAAU [#SharedSequence - SLExNG3: 5-2] (puzzle (switch architecture): Small Loop Exclusion NG 3)	25.8 nM	11.6 nM
GGAUAGGACAGAGGAUAUACGUGCUAGAGAUACUAGCAAAAUUUCCUCACAUGAGGAUCACCCAUGUAGAAGGCGGUCCUAUCG (puzzle (switch architecture): Exclusion NG 2)	8.8 nM	5.37 nM
GGAUAGGACAGAGGAUAUACGUGCUAGAGAUACUAGCAAAAUUUCCUCACAUGAGGAUCACCCAUGUAGAAGGCUGUCCUAUCU (puzzle (switch architecture): Exclusion NG 2)	395 nM	18.6 nM
CCGACGCUUCAGAAGGCACUCGCAUAAUGCGAGUGAGGAUAUGAGGAUCACCCAUAUCAACGUCGGAGUCACCGAAACGGUGAC [#SharedSequence - IEx NG 2-2] (puzzle (switch architecture): Inverted Exclusion NG 1)	14.4 nM	8.54 nM
AAGUGAAAUCAGAAGGCGUGGACGAAACGUCCACGAGGAUAUGAGGAUCACCCAUAUCAGGUCAGCCUGCAAAGCAGGCUGACC [#SharedSequence - IExNG1: 5-2] (puzzle (switch architecture): Inverted Exclusion NG 1)	537 nM	30.2 nM
AGACCUGCUCAGAAGGCGGAAACGAGGCUGGAAACAGCCUCGAAUUAAGAUCUUCGAGGAUCACCCGAGGAUAUGAGCAGGUCA [#SharedSequence - IExNG2: 14] (puzzle (switch architecture): Inverted Exclusion NG 2)	593 nM	60.7 nM
AGGAGAAAUGUAGGAUAUGGGCGGGCGUAUGGGCAAAGCGCAUACGCCCGCCCAGAAGGACAUGAGGAUCACCCAUGUUUCCCU [#Lowering the energy 2] (puzzle (switch architecture): Small Loop Exclusion NG 1)	13.8 nM	11.7 nM
AAAUAACUCGAAGGAUAUGACCCUCGAGGUGACUAAAAGUCACCUCGAGGGUCAGAAGGUCGAGGAUCACCCGACCUAGUGAAA [#SharedSequence SLExNG1: 8] (puzzle (switch architecture): Small Loop Exclusion NG 1)	65.9 nM	10.3 nM
UGAUAGGACAGAGGAUAUACGUGCUAGAGAUACUAGCAAAAUUUCCUCACAUGAGGAUCACCCAUGUAGAAGGCUGUCCUAUCU [#PyrimidineMS2Turnoff - Eli xng 2.01 rotated] (puzzle (switch architecture): Exclusion NG 2)	533 nM	16.5 nM
